Target: T1, integrin β3(G690C/A711P) TM peptide of the disulfide-linked αIIb(A963C)–β3(G690C/A711P) dimer (human, UniProt P05106 711-753, C687S | G690C | A711P, not fully specified; C690 disulfide-linked to C963 of αIIb(A963C); 2H/13C/15N or 2H/15N labelling in some samples)
T1 construct: integrin β3, human, P685-F727; add 26 for P05106; source: E. coli
T1 chain (looked up): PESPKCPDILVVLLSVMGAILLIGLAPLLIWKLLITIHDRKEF
Assay: NMR structure; disulfide-linked dimer, 0.8 mM, in 350 mM DHPC, 105 mM DMPC bicelles (q 0.3), pH 7.4, 40 °C; interhelical NOEs and RDCs
Settings: both partners purified

B1: integrin αIIb(A963C) TM peptide of the disulfide-linked αIIb(A963C)–β3(G690C/A711P) dimer (peptide)
chain: not shown
modifications: C963 disulfide-linked to C690 of β3(G690C/A711P); 2H/13C/15N, 2H/15N or fractionally deuterated labelling in some samples
notes: integrin αIIb, human, A958-P998; add 31 for P08514; source: E. coli
- binding result: binds
